The results in this text go back to the nanobody polyreactivity screen of Harvey et al. (2022).

This data set can be described thus: yeast display, Sf9 membrane polyspecificity reagent, FACS + sequencing; frameworks hold sequencing errors. In short, it runs like this: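 After 36–48 hours of galactose induction, yeast (Saccharomyces cerevisiae BJ5465) displaying a synthetic nanobody library were stained at 4 °C for 1 hour with 10% biotinylated, detergent-solubilized Sf9 membrane reagent. Streptavidin microbeads enriched the stained cells before FACS sorting into low and high (top ~1%) gates on anti-HA and streptavidin fluorescence. Each clone's polyreactivity label reflects its gate of origin.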
Regarding “QVQLVESGGGLVQAGGSLRLSCAASGRILVGYAMGWYRQAPGKERELVAAITGSGASTYYADSVKGRFKISRDNAKNTVYLQMNSLKPEDTAVYYCAASYFNYGVGIWYDYWGQGTQVTVSS”, the “polyreactivity (PSR sort gate)” value is “high polyreactivity”.

Take “QVQLVESGGGLVQAGGSLRLSCAASGRILVSYAMGGYRQAPGKERELVAAISRSGGSTYYADSVKGRFTISLDTAKNTVYLQMNSLKPEDTAVYYCNVYRFSRYDYWGQGTLVTVSS”: the “polyreactivity (PSR sort gate)” value is reported as “high polyreactivity”.

Turning to “QVQLVESGGGLVQAGGSLRLSCAASGRILWDYAMGWYRQAPGKERELVAAISTSSGSTYYADSVKGRFTISRDNAKNTVKLQMNSLKPEHTAVYYCAADNDYSPPWFEYWGQGTQVTVSS”, the “polyreactivity (PSR sort gate)” value is “low polyreactivity”.

In the case of “QVQLVESGGGLVQAGGSLRLSCAASGRILWWYAMGWYRQAPRKEREFFAAITTSGGSTYYADSVKGRFTISRDNAKNTVYLQMTSLKPEDNAVYYCAADLFVRNLVYTYDYDYWGQGTQVTVSA”, the “polyreactivity (PSR sort gate)” value is “high polyreactivity”.

Regarding “QVQLVESGGGLVQAGGSLRLSCAASGRILWYYTMGWYRQAPGKERELVAAISSGGRTHYADSVKGRFTISRDNAKNTVYLQMNSLKPVDTAVYYCAAKYGWGRFNYDYWGQGTQVTVSS”, the “polyreactivity (PSR sort gate)” value was “high polyreactivity”.

Consider “QVQLVESGGGLVQAGGSLRLSCAASGRILYAYAMGWYRQAPGKERELVAAITWGGGNTYYADSVKGRFTISRDNAKNTVYLQMNSLKPEDTAVYYCAADASTVYSTVPEYDFWGQGTQVTVSS”, for which the “polyreactivity (PSR sort gate)” value is recorded as “low polyreactivity”.

For “QVQLVESGGGLVQAGGSLRLSCAASGRILYGYAMGWYRQAPGKERELVAGISWRGGSTYYADSVKGRFTISRDNAKNTVYLQMNSLKPEDTAVYYCAARGWPSQVPVRVFRYDYWGQGTQVTVSS”, the “polyreactivity (PSR sort gate)” value was “high polyreactivity”.

For “QVQLVESGGGLVQAGGSLRLSCAASGRILYGYAMGWYRQAPGKERELVASITWSGGSTYADSVKGRFTISRDNAKNTVYLQMNSLKPEDTAVYYCATRRGPKWQWLTYGYWGQGTKVTVSS”, the “polyreactivity (PSR sort gate)” value was “low polyreactivity”.

For “QVQLVESGGGLVQAGGSLRLSCAASGRILYKYAMGWYRQAPGKERELVAAISRRGGSTFYADSVKGRFTISRDNAKNTVYLQMNSLKPEDTAVYYCAAGSTRYAGWTYNYWGQGTQVTVSS”, the “polyreactivity (PSR sort gate)” value is reported as “high polyreactivity”.

With “QVQLVESGGGLVQAGGSLRLSCAASGRILYKYAMGWYRQAPGKERELVAAISWRGTTTYYADSVKGRFTISRDNAKNTVYLQMNSLKPEDTAVYYGAIDRSYGYFSRPVSQYDYWGQGTQVTVSS”, the “polyreactivity (PSR sort gate)” value is reported as “high polyreactivity”.

Turning to “QVQLVESGGGLVQAGGSLRLSCAASGRILYPYAMGWYRQAPGTERELVAAITFRGGNTYYADSVKGRFTISRDNAKNTVYLQMNSLKPEDTAVYYCAKRGGYWHKFDYWGQGTQVTVSS”, the “polyreactivity (PSR sort gate)” value is listed as “high polyreactivity”.

Regarding “QVQLVESGGGLVQAGGSLRLSCAASGRILYQYAMAWYRQAPGKERELVASISGRSGRTRYADSVKGRFTISRDNAKNTVYLQMNSLKPEDTAVYYCNAGSSVLKYDYWGQGTQVTVSS”, the “polyreactivity (PSR sort gate)” value was “low polyreactivity”.

For “QVQLVESGGGLVQAGGSLRLSCAASGRILYRNAMGWYRQAPGKERELVAAITTRGTSTYYADSVKGRFTISRDNAKNTVYLQMNSLKPEDTAVYYCAADSWFSYRGPLYYWGQGTQVTVSS”, the “polyreactivity (PSR sort gate)” value is recorded as “high polyreactivity”.

“QVQLVESGGGLVQAGGSLRLSCAASGRILYRYAMGWYRQAPGKERELVAAITWRGGTTYYADSVKGRFTISRDNAKNTVYLQMNSLKPEDTAVYYCNADWWRTLESDYWGQGTQVTVSS”: the “polyreactivity (PSR sort gate)” value is “low polyreactivity”.

As to “QVQLVESGGGLVQAGGSLRLSCAASGRILYSYAMGWYRQAPGKERELVASISLSGGRTYADSVKGRFTISRDNAKNTVYLQMNSLKPEDTAVYYCNASIRTSRYLWQFDYWGQGTQVTVSS”, the “polyreactivity (PSR sort gate)” value is given as “high polyreactivity”.

For “QVQLVESGGGLVQAGGSLRLSCAASGRILYVNTMGWYRQAPGKERELVAGITSRVGSTYYADSVKGRFTISRDNAKNTVYLQMNSLKPEDTAVYYCNARDKFYVPSLYAYDYWGQGTQVTVSS”, the “polyreactivity (PSR sort gate)” value is “low polyreactivity”.

On to “QVQLVESGGGLVQAGGSLRLSCAASGRILYVYAMGWYIQAPGKERELVAAITSGGSTHYADSVKGRFTISRDNAKNTVYLQMNSLKPEDTAVYYCAAYTLRNRGGFNYWGQGTQVTVSS”, for which the “polyreactivity (PSR sort gate)” value is on record as “high polyreactivity”.

In the case of “QVQLVESGGGLVQAGGSLRLSCAASGRILYYYAMGWYRQAPGKERELVAAITSGGSTYADSVKGRFTISRDNAKNTVYLQMNSLKPEDTAVYYCNARPVYGSRFYSAVRMEYWGQGTQVTVSS”, the “polyreactivity (PSR sort gate)” value is listed as “low polyreactivity”.

“QVQLVESGGGLVQAGGSLRLSCAASGRIRRYYAMGWYRPAPGKEMELVAVITSSDGSTYYADSVKGRFTISRDNAKTTVYLQMNSLKPEDTAVDYCAAAPLWRLDSWSDPYRRYDYWGQGTQVTVSS”: the “polyreactivity (PSR sort gate)” value is listed as “low polyreactivity”.

On to “QVQLVESGGGLVQAGGSLRLSCAASGRISDVYAMGWYRQAPGKERELVAVISWRGGTTRYADSVKGRFTISRDNAKNTVYLQMNSLKAEDTAVFYCAAKTVLWGQGTQVTVSS”, for which the “polyreactivity (PSR sort gate)” value is “high polyreactivity”.

For “QVQLVESGGGLVQAGGSLRLSCAASGRISESNDMGWYRQAPGKERELVAAISSSGGSTYYADSVKGRFTISRDNAKNTVYLQMNSLKPVDTAVYYCNAVYYRTVLKIGVYEYDYWGQGTQVTVSS”, the “polyreactivity (PSR sort gate)” value is listed as “low polyreactivity”.

Turning to “QVQLVESGGGLVQAGGSLRLSCAASGRISFRYAMGWYRQAPGKERELVAAINRGGITNYADSVKGRFTISRDNAKNTVYLQMNSLKPEDTAVYYCAARYASPRYKSKMDYWGQGTQVTVSS”, the “polyreactivity (PSR sort gate)” value is recorded as “high polyreactivity”.

Consider “QVQLVESGGGLVQAGGSLRLSCAASGRISFRYAMGWYRQAPGKERELVAAINRGGITNYADSVKGRFTISRDNAKNTVYLQMNSLKTEDTAVYYCAARYASPRYKSKMEYWGQGTQVTVSS”, for which the “polyreactivity (PSR sort gate)” value is on record as “high polyreactivity”.

For the sequence “QVQLVESGGGLVQAGGSLRLSCAASGRISGGYAMGWYRQAPGKERELVAVISSGGRTYYADSVKGRFTISRDNAKNTVDLHMNSLKPEVTGVYYCNAYTWGIVDNYDYWGQGTQVTVSS”, the “polyreactivity (PSR sort gate)” value was “low polyreactivity”.

For the sequence “QVQLVESGGGLVQAGGSLRLSCAASGRISNNAMGWYRQAPGKERELVAAITYRGSSTYYADSVKGRFTISRDNAKNTFYLQMISLKPEDTAVYYCAAQRSYAYEYWGQGTQVTVSS”, the “polyreactivity (PSR sort gate)” value is listed as “high polyreactivity”.

In the case of “QVQLVESGGGLVQAGGSLRLSCAASGRISQIYAMGWYRQAPWKERELVARITSTDSTYYADSVKGRFTISRDNAKNTVYLQMNSLKPEDTAVYYCAASWWSPYDYWGQGTQVTVSS”, the “polyreactivity (PSR sort gate)” value is given as “low polyreactivity”.

“QVQLVESGGGLVQAGGSLRLSCAASGRISQNAMGWYRQAPGKERELVAAITFSGGSTYYADSVKGRFTISRDNAKNTVYFQMNSLKPEDTAVYYCNADWPAQWHYYDSKQDDYWGQGTQVTVSS”: the “polyreactivity (PSR sort gate)” value is “low polyreactivity”.

Consider “QVQLVESGGGLVQAGGSLRLSCAASGRISRVYAMGWYRQAPGKERELVAAITSSGGSTYADSVKGRFTISRDNAKNTVYLQMNSLKPEDTAVYYCAADSYWYRFLKSRYDYWGQGTQVTVSS”, for which the “polyreactivity (PSR sort gate)” value is reported as “low polyreactivity”.

Regarding “QVQLVESGGGLVQAGGSLRLSCAASGRISRYNTLGWSSQAPGKERELVAVISWSGASTYYADSVKGRFTISRDNAKNTVYLQMNSLKPEDTAVYYCAAYYRWYNYDYWGQGTQVTVSS”, the “polyreactivity (PSR sort gate)” value is reported as “high polyreactivity”.

With “QVQLVESGGGLVQAGGSLRLSCAASGRISSLYAMGWYRQAPGKERELVAGITWRGGSTYYADSVKGRFTISRDNAKNTVYLQMNSLKPEDTAVYYCNAVWVQQVVGDGKRTWNFWYDYWGQGTQVTVSS”, the “polyreactivity (PSR sort gate)” value is listed as “low polyreactivity”.
